What was measured:
[1] = biological target: HLA-A2 molecule, product of the HLA-A*0201 gene, on JY cells (human); test: flow cytometry; acid-stripped JY cells reassociated with b2m and peptide dilutions, stained with labeled mAb BB7.2; conditions: remark: other sources report otherwise
[2] = biological target: HLA-A24 molecule, product of the HLA-A*2402 gene, on C1R-A24 cells (human); test: flow cytometry; acid-stripped C1R-A24 cells reassociated with b2m and peptide dilutions, stained with labeled mAb 17A12; conditions: remark: other sources report otherwise

B1: SEQ ID NO 61 (…), HLA-A2-binding 10 amino acid peptide of survivin (peptide)
peptide: FLKDHRISTF
Question: Which -log Kd (-log Kd (Kd in molar concentration)) [1] does the source give for B1 here?
Answer: 5.53

B2: SEQ ID NO 1 (…), HLA-A24-binding 9 amino acid peptide of survivin (peptide)
peptide: TLPPAWQPF
Question: For B2, which -log Kd (-log Kd (Kd in molar concentration)) [2] is on record?
Answer: 8.26

B3: SEQ ID NO 23 (…), HLA-A2-binding 9 amino acid peptide of survivin (peptide)
peptide: TLPPAWQPF
Question: Which -log Kd (-log Kd (Kd in molar concentration)) [1] does the source give for B3 here?
Answer: 5.36

B4: SEQ ID NO 44 (…), HLA-A24-binding 10 amino acid peptide of survivin (peptide)
peptide: FLKDHRISTF
Question: How did the -log Kd (-log Kd (Kd in molar concentration)) [2] turn out when B4 was run?
Answer: 7.01

— patent US8487076
